Experimental data reported in paper PMC5748972 (The Journal of Cell Biology, 2018).

Legend:
[1] = target: intact integrin α4β1 on the surface of Jurkat cells (human (endogenous in Jurkat)) (UniProt P13612); assay: flow cytometry on cells
[2] = target: FITC-conjugated 4-((N′-2-methylphenyl)ureido)-phenylacetyl-L-leucyl-L-aspartyl-L-valyl-L-prolyl-L-al; assay: fluorescence polarisation
[3] = target: intact α4β1 on Thp1 cells (Homo sapiens, UniProt P05556+P13612); assay: Fluorescent flow cytometry saturation binding of FITC-LDVP, Thp1; conditions: basal
intact α4β1 on KA4 cells = intact α4β1 on KA4 cells (Homo sapiens, UniProt P05556+P13612); assay: Fluorescent flow cytometry saturation binding of FITC-LDVP, KA4; conditions: basal
integrin α4β1 = integrin α4β1 (Homo sapiens, UniProt P05556+P13612); assay: Summary statements across α4β1 preparations and cell types; assay type: binding; conditions: Jurkat, Thp1, KA4 cell surface
[4] = target: intact α4β1 on Jurkat cells (Homo sapiens, UniProt P05556+P13612); assay: Fluorescent flow cytometry saturation binding of FITC-LDVP, Jurkat; conditions: basal
[5] = target: intact integrin α4β1 on the surface of Jurkat cells (human (endogenous in Jurkat), UniProt P13612;P05556); assay: flow cytometry on cells

## human MAdCAM D1D2 (mucosal addressin cell adhesion molecule, domains 1 and 2) (domain or fragment)
[1]
  Kd: 13900 nM

## integrin α4β1 headpiece with high-mannose N-glycans (from UniProt P05556 21-501) (complex)
[2]
  Kd: 5.2 nM

## α4β1: integrin α4β1; intact receptor on the cell surface
[3]
  P^EO: 0.4 ± 0.1%
Intact α4β1 on KA4 cells
  P^EO: 1.4 ± 0.3%
Integrin α4β1
  free energy of the BC state, range on three cell types: -3.2 to -2.5 kcal/mol
[4]
  P^EO: 1.1 ± 0.2%

B1: alternatively spliced connecting segment III of human fibronectin (domain or fragment)
chain: DELPQLVTLPHPNLHGPEILDVPSTVQKTPFVTHPGYDTGNGIQLPGTSGQQPSVGQQMIFEEHGFRRTTPPTTATPIRHRPRPYPPNVGEEIQIGHIPREDVDYHLYPHG
[5]
  Kd: 1000 ± 190 nM
